Test results published in IntAct's records for PubMed 11854419.

B1: COP9 signalosome complex subunit 1 (Arabidopsis thaliana (Mouse-ear cress)), P45432 (parent)
chain: MERDEEASGPMMEMCTNGGEETSNRRPIISGEPLDIEAYAALYKGRTKIMRLLFIANHCGGNHALQFDALRMAYDEIKKGENTQLFREVVNKIGNRLGEKYGMDLAWCEAVDRRAEQKKVKLENELSSYRTNLIKESIRMGYNDFGDFYYACGMLGDAFKNYIRTRDYCTTTKHIIHMCMNAILVSIEMGQFTHVTSYVNKAEQNPETLEPMVNAKLRCASGLAHLELKKYKLAARKFLDVNPELGNSYNEVIAPQDIATYGGLCALASFDRSELKQKVIDNINFRNFLELVPDVRELINDFYSSRYASCLEYLASLKSNLLLDIHLHDHVDTLYDQIRKKALIQYTLPFVSVDLSRMADAFKTSVSGLEKELEALITDNQIQARIDSHNKILYARHADQRNATFQKVLQMGNEFDRDVRAMLLRANLLKHEYHARSARKL
partner: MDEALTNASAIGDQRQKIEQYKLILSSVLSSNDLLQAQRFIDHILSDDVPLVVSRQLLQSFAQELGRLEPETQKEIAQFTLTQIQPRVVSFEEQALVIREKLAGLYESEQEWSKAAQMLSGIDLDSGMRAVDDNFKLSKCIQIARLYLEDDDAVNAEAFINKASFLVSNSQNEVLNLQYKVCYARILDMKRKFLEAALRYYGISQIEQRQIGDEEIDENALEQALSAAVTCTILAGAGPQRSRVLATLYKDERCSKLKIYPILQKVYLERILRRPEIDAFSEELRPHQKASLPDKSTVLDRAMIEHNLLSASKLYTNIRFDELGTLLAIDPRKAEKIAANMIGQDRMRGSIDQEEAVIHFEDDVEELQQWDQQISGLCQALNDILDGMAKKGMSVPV
B2: COP9 signalosome complex subunit 1 (Arabidopsis thaliana (Mouse-ear cress)), P45432 (parent)
chain: B1 chain
partner: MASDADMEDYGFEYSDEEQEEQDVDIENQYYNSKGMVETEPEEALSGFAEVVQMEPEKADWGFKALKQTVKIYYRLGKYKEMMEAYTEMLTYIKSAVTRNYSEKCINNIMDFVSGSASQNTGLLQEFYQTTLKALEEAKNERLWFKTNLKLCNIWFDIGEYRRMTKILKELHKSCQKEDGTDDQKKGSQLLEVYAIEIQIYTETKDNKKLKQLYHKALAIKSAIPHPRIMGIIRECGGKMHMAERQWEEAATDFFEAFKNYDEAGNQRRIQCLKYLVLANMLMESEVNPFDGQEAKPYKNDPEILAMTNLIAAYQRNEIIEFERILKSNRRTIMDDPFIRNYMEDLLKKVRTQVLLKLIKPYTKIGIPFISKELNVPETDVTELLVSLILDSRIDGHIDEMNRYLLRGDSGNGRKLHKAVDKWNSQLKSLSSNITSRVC

Variants of: B1
Details: with csn4_arath CSN4, Q8L5U0

Row | effect of a mutation on the interaction | Variant
1 | disrupting interaction | MERDEEASGPMMEMCTNGGEETSNRRPIISGEPLDIEAYAALYKGRTKIMRLLFIANHCGGNHALQFDALRMAYDEIKKGENTQLFREVVNKIGNRLGEKYGMDLAWCEAVDRRAEQKKVKLENELSSYRTNLIKESIRMGYNDFGDFYYACGMLGDAFKNYIRTRDYCTTTKHIIHMCMNAILVSIEMGQFTHVTSYVNKAEQNPETLEPMVNAKLRCASRLAHLELKKYKLAARKFLDVNPELGNSYNEVIAPQDIATYGGLCALASFDRSELKQKVIDNINFRNFLELVPDVRELINDFYSSRYASCLEYLASLKSNLLLDIHLHDHVDTLYDQIRKKALIQYTLPFVSVDLSRMADAFKTSVSGLEKELEALITDNQIQARIDSHNKILYARHADQRNATFQKVLQMGNEFDRDVRAMLLRANLLKHEYHARSARKL [G222R]

Variants of: B2
Details: with csn2_arath CSN2, Q8W207

Row | effect of a mutation on the interaction | Variant
2 | disrupting interaction | MERDEEASGPMMEMCTNGGEETSNRRPIISGEPLDIEAYAALYKGRTKIMRLLFIANHCGGNHALQFDALRMAYDEIKKGENTQLFREVVNKIGNRLGEKYGMDLAWCEAVDRRAEQKKVKLENELSSYRTNLIKESIRMGYNDFGDFYYACGMLGDAFKNYIRTRDYCTTTKHIIHMCMNAILVSIEMGQFTHVTSYVNKAEQNPETLEPMVNAKLRCASRLAHLELKKYKLAARKFLDVNPELGNSYNEVIAPQDIATYGGLCALASFDRSELKQKVIDNINFRNFLELVPDVRELINDFYSSRYASCLEYLASLKSNLLLDIHLHDHVDTLYDQIRKKALIQYTLPFVSVDLSRMADAFKTSVSGLEKELEALITDNQIQARIDSHNKILYARHADQRNATFQKVLQMGNEFDRDVRAMLLRANLLKHEYHARSARKL [G222R]
